Biological target: lipin 1 (UniProt Q14693)
Assay: co-immunoprecipitation (presumed)
Details: reference: wild-type Tip60; sites S86

binding against the reference: weaker
Substance: Tip60 (from UniProt Q92993) S86A-Tip60
